This assay addresses C3b (UniProt P01024). The assay can be described thus: SPR. On the technique in general: SPR reads the build-up and loss of mass on a sensor chip optically.
UniProt P01024, sequence (P01024 whole entry, looked up): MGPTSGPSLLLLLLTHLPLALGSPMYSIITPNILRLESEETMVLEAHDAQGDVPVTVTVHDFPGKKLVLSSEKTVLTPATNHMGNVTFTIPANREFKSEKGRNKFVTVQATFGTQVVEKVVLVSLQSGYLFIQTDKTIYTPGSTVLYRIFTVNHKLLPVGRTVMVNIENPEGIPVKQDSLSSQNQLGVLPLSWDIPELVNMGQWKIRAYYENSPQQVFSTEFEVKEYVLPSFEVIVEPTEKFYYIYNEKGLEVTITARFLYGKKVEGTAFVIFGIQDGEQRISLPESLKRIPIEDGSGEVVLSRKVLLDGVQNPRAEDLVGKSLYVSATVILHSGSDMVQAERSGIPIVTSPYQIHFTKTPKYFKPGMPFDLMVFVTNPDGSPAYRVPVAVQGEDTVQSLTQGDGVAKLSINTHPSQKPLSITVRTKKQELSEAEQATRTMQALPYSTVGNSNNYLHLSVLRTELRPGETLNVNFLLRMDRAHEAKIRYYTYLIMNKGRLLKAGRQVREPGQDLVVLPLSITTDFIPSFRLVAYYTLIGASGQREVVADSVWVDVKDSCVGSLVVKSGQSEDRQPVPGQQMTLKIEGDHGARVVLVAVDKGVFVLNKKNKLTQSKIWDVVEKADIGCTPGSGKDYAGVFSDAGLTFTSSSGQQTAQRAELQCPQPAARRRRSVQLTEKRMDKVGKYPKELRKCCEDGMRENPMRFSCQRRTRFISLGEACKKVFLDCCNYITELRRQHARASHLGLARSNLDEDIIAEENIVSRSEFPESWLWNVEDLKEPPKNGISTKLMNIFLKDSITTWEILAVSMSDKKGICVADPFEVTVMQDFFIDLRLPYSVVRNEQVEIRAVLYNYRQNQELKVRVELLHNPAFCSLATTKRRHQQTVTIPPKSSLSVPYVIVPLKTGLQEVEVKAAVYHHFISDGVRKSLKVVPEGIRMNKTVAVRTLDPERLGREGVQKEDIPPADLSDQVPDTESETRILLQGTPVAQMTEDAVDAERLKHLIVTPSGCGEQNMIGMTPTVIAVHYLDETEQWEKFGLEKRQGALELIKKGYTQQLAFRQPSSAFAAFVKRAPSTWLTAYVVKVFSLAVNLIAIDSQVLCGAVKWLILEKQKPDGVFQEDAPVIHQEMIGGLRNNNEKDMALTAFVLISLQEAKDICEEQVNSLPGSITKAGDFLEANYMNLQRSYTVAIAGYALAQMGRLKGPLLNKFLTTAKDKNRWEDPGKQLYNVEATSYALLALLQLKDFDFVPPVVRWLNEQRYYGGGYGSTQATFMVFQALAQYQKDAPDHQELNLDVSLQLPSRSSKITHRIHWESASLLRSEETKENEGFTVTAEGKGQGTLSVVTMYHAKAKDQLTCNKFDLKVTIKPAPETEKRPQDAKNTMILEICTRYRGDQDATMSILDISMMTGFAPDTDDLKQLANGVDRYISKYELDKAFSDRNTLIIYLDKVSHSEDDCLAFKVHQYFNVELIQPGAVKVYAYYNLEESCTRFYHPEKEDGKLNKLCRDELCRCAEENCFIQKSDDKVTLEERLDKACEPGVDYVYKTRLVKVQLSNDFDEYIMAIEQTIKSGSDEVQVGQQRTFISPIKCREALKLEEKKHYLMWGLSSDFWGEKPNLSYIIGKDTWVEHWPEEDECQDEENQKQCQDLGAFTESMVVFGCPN

As to “plasma derived Factor H (from UniProt P08603 19-1231) (natural protein)”, the KD with anti-FH.07.1 Fab' fragments worked out at 1.9 µM and the Kd – broadly, the free concentration of one partner at which half of the binding sites on the other are occupied at equilibrium, for simple one-to-one binding – is 6 µM.

The record behind these values is doi:10.1101/2020.04.08.026906.
